Laboratory results reported in article PMC9696605 (Viruses, 2022).
Where no end group is shown, it is not given here. [ ]: non-standard residue; d: D form. pT = C[C@@H](OP(=O)(O)O)[C@H](N)C(=O)O

B1: U24-6B(1-15), 15-residue peptide of the N-terminal region of U24 from HHV-6B (peptide)
peptide: MDRPRTPPPSYSEVL
notes: source: synthetic peptide (Fmoc solid phase, C18 HPLC purified)
B2: U24-6A(1-15), 15-residue peptide of the N-terminal region of U24 from HHV-6A (peptide)
peptide: MDPPRTPPPSYSEVL
notes: as for B1
B3: pU24-6A(1-15), U24-6A peptide with phospho-threonine 6 (peptide)
peptide: MDPPR[pT]PPPSYSEVL
notes: source: synthetic peptide, bought: Genscript
B4: pU24-6B(1-15), U24-6B peptide with phospho-threonine 6 (peptide)
peptide: MDRPR[pT]PPPSYSEVL
notes: as for B3

Assays:
[1] = target: human neural precursor cell expressed developmentally down-regulated protein 4-like WW3* domain (hNedd4L-WW3*) (human, UniProt Q96PU5 497-530); test: ITC; settings: both partners purified
[2] = target: T1, SH3 domain of human Fyn (Fyn-SH3), 15N-labelled (human, UniProt P06241 82-142); test: NMR titration; settings: both partners purified
T1 construct: also called 15N-Fyn-SH3
T1 sequence (P06241 82-142): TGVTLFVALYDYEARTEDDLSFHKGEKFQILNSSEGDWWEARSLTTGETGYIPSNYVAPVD

human neural precursor cell expressed developmentally down-regulated protein 4-like WW3* domain (hNedd4L-WW3*), sequence (Q96PU5 497-530): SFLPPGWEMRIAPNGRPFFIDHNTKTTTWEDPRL

Row | Binder | Kd [1] | Kd [2]
1 | B1 | 8.9 µM | 500 ± 200 µM
2 | B2 | 8.5 µM | 
3 | B3 |  | ≥ 12000 µM
4 | B4 |  | ≥ 5000 µM
